Assay results: the supplement of paper PMC10724198
± gives the standard deviation of the averaged measurements.

test system: Saccharomyces cerevisiae; assay: protein stability index of tFT-peptide fusion (C-terminal peptide) (PSI (0-1 scale)); higher = more stable (slower turnover); conditions: genetic background: wild type; temperature: 30 C
Protocol: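 Multiplexed protein stability (MPS) profiling in S. cerevisiae. Random 12-aa peptides (tFT-X12 library) are fused to the C-terminus of a sfGFP-mCherry tandem fluorescent timer, after mCherry and a GGGS linker. Cells are FACS-sorted into 8 mCherry/sfGFP bins and deep-sequenced. The protein stability index (PSI) is the read-weighted bin average, scaled from 0 (unstable) to 1 (stable). Only peptides with >10 reads are reported; cells were grown at 30 °C in SC-His with glucose.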
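Also: PSI is a weighted mean of sequencing reads over stability bins, variants kept only with over 10 reads, mCherry proximal and sfGFP distal, peptide attached via GGGS linker.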

Sequence	protein stability index
ASSLHFLYLPAL	0.709 ± 0.062
ASTTSYNITLEC	0.679 ± 0.17
ASVLSTQDPGEY	0.676 ± 0.055
ASVWSLPSIVLT	0.519 ± 0.074
ASWEARGWLGWA	0.794 ± 0.05
ATGGGSFKRRVS	0.53 ± 0.014
ATGHQMTMYDNR	0.708 ± 0.069
ATHISCRRNRLY	0.57 ± 0.039
ATLVRTTWSCHG	0.669 ± 0.014
ATMGRKSLRDRF	0.679 ± 0.012
ATSCLPLPSCPG	0.726 ± 0.019
ATSSNFGVWVHV	0.69 ± 0.048
AVACGGASGCGC	0.707 ± 0.071
AVCWGGSVGGVG	0.69898 ± 0.00012
AVEGVSEVSLSG	0.656 ± 0.019
AVGQGAGSWGWE	0.691 ± 0.049
AVGRGGVGAEGA	0.65 ± 0.011
AVGWGGLKGRVG	0.7 ± 0.037
AVKMLGRGLVLV	0.624 ± 0.032
AVPLFRSVSRTS	0.667 ± 0.11
AVPSLYLLPFSF	0.69 ± 0.037
AVRFISRLPPPA	0.686 ± 0.078
AVSPISLSDNIG	0.664 ± 0.018
AVSRSLTGVRFL	0.697 ± 0.025
AVTAFDMGGSRN	0.672 ± 0.12

Sequence	protein stability index
AVVSRVPRLFRL	0.724 ± 0.045
AVVYIRVEVPGA	0.498 ± 0.017
AVWLEAVSVSLS	0.612 ± 0.012
AVWRVSGPFTDA	0.685 ± 0.071
AVYSDCARNITW	0.714 ± 0.047
AWFIRSLVAYFL	0.545 ± 0.017
AWGLDGCQLCFS	0.751 ± 0.11
AYLNPFTSALTA	0.616 ± 0.028
AYTWVMTGAWLL	0.586 ± 0.015
CAAIHFLLPTYP	0.69 ± 0.054
CAAYIQNLPFPF	0.727 ± 0.019
CAEGMCCCRGVG	0.56 ± 0.013
CAGGLFAVVTPS	0.682 ± 0.043
CARAGLGFRWVG	0.621 ± 0.031
CARPVLSAGSWQ	0.673 ± 0.065
CCFAGFAVWSVD	0.7 ± 0.019
CCLLYPAVYTTQ	0.62 ± 0.046
CCPLRLPRSRGY	0.705 ± 0.055
CCSWPSRLLLEG	0.722 ± 0.026
CCVVFMGLGGGR	0.673 ± 0.0085
CCYSSLRLMSFL	0.536 ± 0.014
CDDIIKGEIRIM	0.722 ± 0.041
CDFYGCAPAPRL	0.7945 ± 0.0077
CDHLSLCDDLFA	0.753 ± 0.065
CDQVSDGSMGTV	0.634 ± 0.04

Sequence	protein stability index
CDTIPNPLYKYD	0.75 ± 0.055
CDYAWSSSASLG	0.56 ± 0.017
CECANLIAHFCV	0.6253 ± 0.0059
CECVGGFGFLGS	0.682 ± 0.031
CEITISQEQSAS	0.624 ± 0.022
CFGFRVFGFVFF	0.561 ± 0.075
CFGGGVGWFPLG	0.698 ± 0.0076
CFGSRDSSFGHT	0.763 ± 0.13
CFLIFQRSWLFR	0.576 ± 0.066
CFNGRVGGGGMR	0.636 ± 0.086
CFPALSSRTFPS	0.7521 ± 0.0047
CFPPVGPTSPTI	0.745 ± 0.022
CFSFLEYCTSLP	0.704 ± 0.012
CGEGVCVTGWSR	0.68 ± 0.028
CGFGVSHASRIF	0.78 ± 0.012
CGGAKLPEQCQK	0.6813 ± 0.0022
CGLCDISFDLVM	0.626 ± 0.027
CGLSAGIVLFFC	0.58 ± 0.012
CGQEQGCEGAVD	0.658 ± 0.12
CGRERIEGGGGD	0.643 ± 0.1
CGRPPPLFAFIP	0.701 ± 0.037
CGTPWHSITCSA	0.55 ± 0.012
CGTYPTFCGLGV	0.68 ± 0.068
CGVCRGSCGGYG	0.583 ± 0.016
CGVCSAGIFVGG	0.761 ± 0.026

Sequence	protein stability index
CGVFAGRVGVRV	0.6003 ± 0.0017
CGVMLFGLGCLW	0.6321 ± 0.00042
CGVSRIGLAGDV	0.671 ± 0.039
CGWIQYSVSHDL	0.712 ± 0.059
CHNVIEKIRNNK	0.657 ± 0.1
CHPFGLPFMLEF	0.721 ± 0.026
CHSIEGSEPREA	0.694 ± 0.085
CIATINKMTRRI	0.67 ± 0.11
CIRSRHRRQSKG	0.67 ± 0.088
CISPPRHAPPPP	0.637 ± 0.092
CKCKLNKKTTKS	0.701 ± 0.05
CKEGLGSGRWGR	0.717 ± 0.018
CKKGVEIIEREK	0.632 ± 0.026
CLCLTCMLDFYL	0.553 ± 0.0092
CLEEVVCRVRGA	0.643 ± 0.0096
CLFPVSLPCPTN	0.714 ± 0.018
CLGPTVYGRSTF	0.728 ± 0.025
CLICLRSRMGDC	0.642 ± 0.024
CLIGYFPYRLVL	0.502 ± 0.025
CLLCLPPPRSLS	0.69 ± 0.034
CLPLFISPFLLG	0.677 ± 0.0068
CLPPPARLPAPR	0.683 ± 0.033
CLSGLIIMPSVG	0.675 ± 0.035
